Results reported in the RNAGym collection of RNA variant scans (doi:10.1021/acssynbio.7b00057).

B1: Pistol ribozyme (parent)
chain: GGGUCGUUGUUCCAUAAUCGCGUGGAUAUGGCACGCAAGUUUCUACCGGGCACCGUAAAUGUCCGACUGGAGCCGUUCGGGCGGCUAUAAACAGACCUCAGGCCCGAAGCGUGGCGGCACCUGCCGCCGGUGGUAAAAAAGAUCGGAAGAGCACACGUCU

Variants of: B1
Experiment: aptazyme ON/OFF ratio, guanine; higher = stronger switching; co-transcriptional cleavage with and without guanine

Point of comparison: G9C U11C C12G, “aptazyme ON/OFF ratio” value 1.22. Against it:
- G9C U10C U11A C12U C13A — lower, 1.08
- G9C U10C U11A C12U C13G — lower, 1.1
- G9C U10C U11A C12U C13U — lower, 1.06
- G9C U10A U11G C12U — higher, 1.37
- G9C U10A U11G C12G — higher, 1.23
- G9C U10A U11G C12A — lower, 1.06
- G9C U10C C13A — lower, 1.06
- G9C U10C C13U — lower, 1.1
- G9C U10C C13G — lower, 1.06
- G9C U10G C12A C13G — lower, 1.11
- G9C U10G C12A C13U — higher, 1.32
- G9C U10G C12A C13A — lower, 1.15
- G9C C12U C13G — lower, 1.04
- G9C C12U C13U — higher, 1.31
- G9C C12U C13A — lower, 1.14
- G9C U10C — higher, 1.52
- G9C U10G — higher, 2.17
- G9C U10A — higher, 1.98
- G9U C12G C13G — higher, 1.27
- G9U C12G C13U — higher, 1.43
- G9U C12G C13A — higher, 1.52
- G9U — higher, 4.29
- G9C U11C C13A — lower, 1.06
- G9C U11C C13U — lower, 1.04
- G9C U11C C13G — lower, 1.03
- G9C U10C U11A C13G — lower, 1.07
- G9C U10C U11A C13A — lower, 1.05
- G9C U10C U11A C13U — lower, 1.07
- G9C U11A C12U C13G — lower, 1.17
- G9C U11A C12U C13A — higher, 1.27
- G9C U11A C12U C13U — higher, 1.34
- G9C U10G U11C C12G — lower, 1.17
- G9C U10G U11C C12U — lower, 1.08
- G9C U10G U11C C12A — higher, 1.37
- G9U U10A U11A C12A C13A — higher, 1.37
- G9U U10A U11A C12A C13U — higher, 1.41
- G9U U10A U11A C12A C13G — higher, 1.29
- G9C U10G U11G C13U — lower, 1.13
- G9C U10G U11G C13A — lower, 1.09
- G9C U10G U11G C13G — lower, 1.12
- G9C U11G C12A — lower, 1.11
- G9C U11G C12U — higher, 1.84
- G9C U11G C12G — higher, 1.27
- G9U U10A — higher, 3.18
- G9C U10A U11A C12A C13U — higher, 1.27
- G9C U10A U11A C12A C13G — lower, 1.21
- G9C U10A U11A C12A C13A — higher, 1.4
- G9C U11A C12G — higher, 1.47
- G9C U11A C12U — higher, 1.53
- G9C U11A C12A — higher, 1.34
- G9U C13A — higher, 1.34
- G9U C13U — higher, 2.07
- G9U C13G — lower, 1.09
- G9C U11C C12U — lower, 1.14
- G9C U11C C12A — higher, 1.25
- G9C U10C U11C C12A C13U — lower, 0.997
- G9C U10C U11C C12A C13G — lower, 1.01
- G9C U10C U11C C12A C13A — lower, 1.03
- G9U U10A U11A C12G C13A — lower, 0.999
- G9U U10A U11A C12G C13U — higher, 1.64
- G9U U10A U11A C12G C13G — higher, 1.51
- G9U U10A U11C C13A — higher, 1.53
- G9U U10A U11C C13G — lower, 1.04
- G9U U10A U11C C13U — lower, 1.17
- G9U C12A C13U — lower, 1.1
- G9U C12A C13A — higher, 1.63
- G9U C12A C13G — higher, 1.45
- G9C U10A C12G C13U — the same, 1.22
- G9C U10A C12G C13A — higher, 1.31
- G9C U10A C12G C13G — lower, 1.18
- G9C U10A U11G C12A C13A — lower, 1.06
- G9C U10A U11G C12A C13U — lower, 1.17
- G9C U10A U11G C12A C13G — lower, 1.17
- G9C U10G U11G C12A C13U — lower, 1.11
- G9C U10G U11G C12A C13A — lower, 1.11
- G9C U10G U11G C12A C13G — lower, 1.12
- G9C U10G U11C C12U C13G — lower, 1.09
- G9C U10G U11C C12U C13U — higher, 1.24
- G9C U10G U11C C12U C13A — lower, 1.2
- G9C U10C U11A C12G C13G — lower, 1.19
- G9C U10C U11A C12G C13U — the same, 1.22
- G9C U10C U11A C12G C13A — lower, 1.19
- G9C C13G — lower, 1.03
- G9C C13A — lower, 1.02
- G9C C13U — lower, 1.07
- G9C U10A U11C C12U C13U — higher, 1.29
- G9C U10A U11C C12U C13A — higher, 1.25
- G9C U10A U11C C12U C13G — lower, 1.12
- G9C U10A U11A C12G C13A — higher, 1.31
- G9C U10A U11A C12G C13U — higher, 1.38
- G9C U10A U11A C12G C13G — higher, 1.27
- G9C U10C U11C C12G C13A — lower, 1.08
- G9C U10C U11C C12G C13U — lower, 1.04
- G9C U10C U11C C12G C13G — lower, 1.05
- G9U U10A U11A C12U C13G — higher, 1.7
- G9U U10A U11A C12U C13A — lower, 1.09
- G9U U10A U11A C12U C13U — lower, 1.08
- G9C U10A U11A C12A — higher, 1.52
- G9C U10A U11A C12U — higher, 1.66
- G9C U10A U11A C12G — higher, 1.5
- G9C U10A U11G C13G — lower, 1.09
- G9C U10A U11G C13U — higher, 1.35
- G9C U10A U11G C13A — lower, 1.21
- G9U U10A U11A C12U — higher, 1.64
- G9U U10A U11A C12G — higher, 1.47
- G9U U10A U11A C12A — higher, 1.54
- G9C U10C C12A C13G — lower, 1.06
- G9C U10C C12A C13U — lower, 1.05
- G9C U10C C12A C13A — lower, 1.03
- G9U U10A U11C C12U C13U — higher, 1.5
- G9U U10A U11C C12U C13G — higher, 1.39
- G9U U10A U11C C12U C13A — lower, 1.11
- G9C U10G U11G C12U C13U — lower, 1.05
- G9C U10G U11G C12U C13A — lower, 1.09
- G9C U10G U11G C12U C13G — lower, 1.08
- G9C U10G U11A C12G C13G — higher, 1.24
- G9C U10G U11A C12G C13U — lower, 1.07
- G9C U10G U11A C12G C13A — lower, 1.11
- G9C U10A C13A — higher, 1.3
- G9C U10A C13G — lower, 1.08
- G9C U10A C13U — higher, 1.3
- G9C U10A U11C C13G — lower, 1.04
- G9C U10A U11C C13A — lower, 1.09
- G9C U10A U11C C13U — lower, 1.06
- G9C U10G C13U — higher, 1.49
- G9C U10G C13G — lower, 1.1
- G9C U10G C13A — higher, 1.28
- G9U U10A C12G C13U — lower, 1.21
- G9U U10A C12G C13G — higher, 1.33
- G9U U10A C12G C13A — lower, 1.07
- G9C U11A C13A — lower, 1.19
- G9C U11A C13G — lower, 1.04
- G9C U11A C13U — higher, 1.3
- G9C U10A U11C — lower, 1.06
- G9C U10A U11A — higher, 2.14
- G9C U10A U11G — higher, 2.06
- G9C U10A C12G — the same, 1.22
- G9C U10A C12A — higher, 1.81
- G9C U10A C12U — higher, 1.6
- G9C U10C U11C C12G — lower, 1.04
- G9C U10C U11C C12U — lower, 1.03
- G9C U10C U11C C12A — lower, 1.04
- G9U U10A C12A — lower, 1.21
- G9U U10A C12U — higher, 1.41
- G9U U10A C12G — higher, 1.41
- G9C U10G U11C C12A C13A — the same, 1.22
- G9C U10G U11C C12A C13G — lower, 1.15
- G9C U10G U11C C12A C13U — higher, 1.25
- G9C U10C C12U C13G — lower, 1.06
- G9C U10C C12U C13U — lower, 1.07
- G9C U10C C12U C13A — lower, 1.07
- G9C U11C C12G C13A — lower, 1.13
- G9C U11C C12G C13G — lower, 1.09
- G9C U11C C12G C13U — lower, 1.19
- G9C U10C U11G C13U — lower, 1.08
- G9C U10C U11G C13G — lower, 1.08
- G9C U10C U11G C13A — lower, 1.06
- G9U C12A — lower, 1.08
- G9U C12U — higher, 2.37
- G9U C12G — higher, 1.75
- G9C U10A U11G C12U C13G — lower, 1.16
- G9C U10A U11G C12U C13A — lower, 1.08
- G9C U10A U11G C12U C13U — higher, 1.26
- G9C U10G U11C C12G C13A — lower, 1.17
- G9C U10G U11C C12G C13U — lower, 1.15
- G9C U10G U11C C12G C13G — higher, 1.24
